{
  "source": "patent US20260070987A1",
  "data": [
    {"molecular_target": "equine FcRn (large alpha subunit p51) / equine beta-2-microglobulin complex, biotinylated (equine) (UniProt P30441)", "sequence (P30441 21-118, one chain of several)": "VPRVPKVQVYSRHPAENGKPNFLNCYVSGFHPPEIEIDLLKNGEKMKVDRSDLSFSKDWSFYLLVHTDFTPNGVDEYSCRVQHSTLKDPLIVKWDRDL", "assay": "SPR (Biacore), pH 6", "units": {"Kd": "nM"}, "values": [
      {"binder": "equine IgG4 M428Y (antibody, part only; not given: variable domains, not shown: another chain or arm of the molecule) constant: ASTTAPKVFPLASHSAATSGSTVALGCLVSSYFPEPVTVSWNSGALTSGVHTFPSVLQSSGLYSLSSMVTVPASSLKSQTYICNVAHPASSTKVDKKIVIKECNGGCPAECLQVGPSVFIFPPKPKDVLMISRTPTVTCVVVDVGHDFPDVQFNWYVDGVETHTATTEPKQEQFNSTYRVVSVLPIQHKDWLSGKEFKCKVNNKALPAPVERTISKPTGQPREPQVYVLAPHRDELSKNKVSVTCLVKDFYPTDIDIEWKSNGQPEPETKYSTTPAQLDSDGSYFLYSKLTVETNRWQQGTTFTCAVYHEALHNHYTEKSVSKSPGK", "Kd": 30.8},
      {"binder": "equine IgG4 N434L (antibody, part only; not given: variable domains, not shown: another chain or arm of the molecule) constant: ASTTAPKVFPLASHSAATSGSTVALGCLVSSYFPEPVTVSWNSGALTSGVHTFPSVLQSSGLYSLSSMVTVPASSLKSQTYICNVAHPASSTKVDKKIVIKECNGGCPAECLQVGPSVFIFPPKPKDVLMISRTPTVTCVVVDVGHDFPDVQFNWYVDGVETHTATTEPKQEQFNSTYRVVSVLPIQHKDWLSGKEFKCKVNNKALPAPVERTISKPTGQPREPQVYVLAPHRDELSKNKVSVTCLVKDFYPTDIDIEWKSNGQPEPETKYSTTPAQLDSDGSYFLYSKLTVETNRWQQGTTFTCAVMHEALHLHYTEKSVSKSPGK", "Kd": 48.5},
      {"binder": "equine IgG4 N434D (antibody, part only; not given: Variable domains, not shown: another chain or arm of the molecule) constant: ASTTAPKVFPLASHSAATSGSTVALGCLVSSYFPEPVTVSWNSGALTSGVHTFPSVLQSSGLYSLSSMVTVPASSLKSQTYICNVAHPASSTKVDKKIVIKECNGGCPAECLQVGPSVFIFPPKPKDVLMISRTPTVTCVVVDVGHDFPDVQFNWYVDGVETHTATTEPKQEQFNSTYRVVSVLPIQHKDWLSGKEFKCKVNNKALPAPVERTISKPTGQPREPQVYVLAPHRDELSKNKVSVTCLVKDFYPTDIDIEWKSNGQPEPETKYSTTPAQLDSDGSYFLYSKLTVETNRWQQGTTFTCAVMHEALHDHYTEKSVSKSPGK", "Kd": 38.5},
      {"binder": "equine IgG4 N434F (antibody, part only; not given: variable domains, not shown: another chain or arm of the molecule) constant: ASTTAPKVFPLASHSAATSGSTVALGCLVSSYFPEPVTVSWNSGALTSGVHTFPSVLQSSGLYSLSSMVTVPASSLKSQTYICNVAHPASSTKVDKKIVIKECNGGCPAECLQVGPSVFIFPPKPKDVLMISRTPTVTCVVVDVGHDFPDVQFNWYVDGVETHTATTEPKQEQFNSTYRVVSVLPIQHKDWLSGKEFKCKVNNKALPAPVERTISKPTGQPREPQVYVLAPHRDELSKNKVSVTCLVKDFYPTDIDIEWKSNGQPEPETKYSTTPAQLDSDGSYFLYSKLTVETNRWQQGTTFTCAVMHEALHFHYTEKSVSKSPGK", "Kd": 4.4},
      {"binder": "equine IgG4 N434G (antibody, part only; not given: variable domains, not shown: another chain or arm of the molecule) constant: ASTTAPKVFPLASHSAATSGSTVALGCLVSSYFPEPVTVSWNSGALTSGVHTFPSVLQSSGLYSLSSMVTVPASSLKSQTYICNVAHPASSTKVDKKIVIKECNGGCPAECLQVGPSVFIFPPKPKDVLMISRTPTVTCVVVDVGHDFPDVQFNWYVDGVETHTATTEPKQEQFNSTYRVVSVLPIQHKDWLSGKEFKCKVNNKALPAPVERTISKPTGQPREPQVYVLAPHRDELSKNKVSVTCLVKDFYPTDIDIEWKSNGQPEPETKYSTTPAQLDSDGSYFLYSKLTVETNRWQQGTTFTCAVMHEALHGHYTEKSVSKSPGK", "Kd": 21.2},
      {"binder": "equine IgG4 N434C (antibody, part only; not given: Variable domains, not shown: another chain or arm of the molecule) constant: ASTTAPKVFPLASHSAATSGSTVALGCLVSSYFPEPVTVSWNSGALTSGVHTFPSVLQSSGLYSLSSMVTVPASSLKSQTYICNVAHPASSTKVDKKIVIKECNGGCPAECLQVGPSVFIFPPKPKDVLMISRTPTVTCVVVDVGHDFPDVQFNWYVDGVETHTATTEPKQEQFNSTYRVVSVLPIQHKDWLSGKEFKCKVNNKALPAPVERTISKPTGQPREPQVYVLAPHRDELSKNKVSVTCLVKDFYPTDIDIEWKSNGQPEPETKYSTTPAQLDSDGSYFLYSKLTVETNRWQQGTTFTCAVMHEALHCHYTEKSVSKSPGK", "Kd": 113},
      {"binder": "equine IgG4 N434A (antibody, part only; not given: Variable domains, not shown: another chain or arm of the molecule) constant: ASTTAPKVFPLASHSAATSGSTVALGCLVSSYFPEPVTVSWNSGALTSGVHTFPSVLQSSGLYSLSSMVTVPASSLKSQTYICNVAHPASSTKVDKKIVIKECNGGCPAECLQVGPSVFIFPPKPKDVLMISRTPTVTCVVVDVGHDFPDVQFNWYVDGVETHTATTEPKQEQFNSTYRVVSVLPIQHKDWLSGKEFKCKVNNKALPAPVERTISKPTGQPREPQVYVLAPHRDELSKNKVSVTCLVKDFYPTDIDIEWKSNGQPEPETKYSTTPAQLDSDGSYFLYSKLTVETNRWQQGTTFTCAVMHEALHAHYTEKSVSKSPGK", "Kd": 17.4},
      {"binder": "equine IgG4 N434K (antibody, part only; not given: variable domains, not shown: another chain or arm of the molecule) constant: ASTTAPKVFPLASHSAATSGSTVALGCLVSSYFPEPVTVSWNSGALTSGVHTFPSVLQSSGLYSLSSMVTVPASSLKSQTYICNVAHPASSTKVDKKIVIKECNGGCPAECLQVGPSVFIFPPKPKDVLMISRTPTVTCVVVDVGHDFPDVQFNWYVDGVETHTATTEPKQEQFNSTYRVVSVLPIQHKDWLSGKEFKCKVNNKALPAPVERTISKPTGQPREPQVYVLAPHRDELSKNKVSVTCLVKDFYPTDIDIEWKSNGQPEPETKYSTTPAQLDSDGSYFLYSKLTVETNRWQQGTTFTCAVMHEALHKHYTEKSVSKSPGK", "Kd": 42.8},
      {"binder": "equine IgG4 N434I (antibody, part only; not given: variable domains, not shown: another chain or arm of the molecule) constant: ASTTAPKVFPLASHSAATSGSTVALGCLVSSYFPEPVTVSWNSGALTSGVHTFPSVLQSSGLYSLSSMVTVPASSLKSQTYICNVAHPASSTKVDKKIVIKECNGGCPAECLQVGPSVFIFPPKPKDVLMISRTPTVTCVVVDVGHDFPDVQFNWYVDGVETHTATTEPKQEQFNSTYRVVSVLPIQHKDWLSGKEFKCKVNNKALPAPVERTISKPTGQPREPQVYVLAPHRDELSKNKVSVTCLVKDFYPTDIDIEWKSNGQPEPETKYSTTPAQLDSDGSYFLYSKLTVETNRWQQGTTFTCAVMHEALHIHYTEKSVSKSPGK", "Kd": 40.6},
      {"binder": "equine IgG4 N434H (antibody, part only; not given: Variable domains, not shown: another chain or arm of the molecule) constant: ASTTAPKVFPLASHSAATSGSTVALGCLVSSYFPEPVTVSWNSGALTSGVHTFPSVLQSSGLYSLSSMVTVPASSLKSQTYICNVAHPASSTKVDKKIVIKECNGGCPAECLQVGPSVFIFPPKPKDVLMISRTPTVTCVVVDVGHDFPDVQFNWYVDGVETHTATTEPKQEQFNSTYRVVSVLPIQHKDWLSGKEFKCKVNNKALPAPVERTISKPTGQPREPQVYVLAPHRDELSKNKVSVTCLVKDFYPTDIDIEWKSNGQPEPETKYSTTPAQLDSDGSYFLYSKLTVETNRWQQGTTFTCAVMHEALHHHYTEKSVSKSPGK", "Kd": 5.2},
      {"binder": "equine IgG4 N434E (antibody, part only; not given: variable domains, not shown: another chain or arm of the molecule) constant: ASTTAPKVFPLASHSAATSGSTVALGCLVSSYFPEPVTVSWNSGALTSGVHTFPSVLQSSGLYSLSSMVTVPASSLKSQTYICNVAHPASSTKVDKKIVIKECNGGCPAECLQVGPSVFIFPPKPKDVLMISRTPTVTCVVVDVGHDFPDVQFNWYVDGVETHTATTEPKQEQFNSTYRVVSVLPIQHKDWLSGKEFKCKVNNKALPAPVERTISKPTGQPREPQVYVLAPHRDELSKNKVSVTCLVKDFYPTDIDIEWKSNGQPEPETKYSTTPAQLDSDGSYFLYSKLTVETNRWQQGTTFTCAVMHEALHEHYTEKSVSKSPGK", "Kd": 71.3},
      {"binder": "equine IgG4 N434M (antibody, part only; not given: variable domains, not shown: another chain or arm of the molecule) constant: ASTTAPKVFPLASHSAATSGSTVALGCLVSSYFPEPVTVSWNSGALTSGVHTFPSVLQSSGLYSLSSMVTVPASSLKSQTYICNVAHPASSTKVDKKIVIKECNGGCPAECLQVGPSVFIFPPKPKDVLMISRTPTVTCVVVDVGHDFPDVQFNWYVDGVETHTATTEPKQEQFNSTYRVVSVLPIQHKDWLSGKEFKCKVNNKALPAPVERTISKPTGQPREPQVYVLAPHRDELSKNKVSVTCLVKDFYPTDIDIEWKSNGQPEPETKYSTTPAQLDSDGSYFLYSKLTVETNRWQQGTTFTCAVMHEALHMHYTEKSVSKSPGK", "Kd": 43.4},
      {"binder": "equine IgG4 N434P (antibody, part only; not given: variable domains, not shown: another chain or arm of the molecule) constant: ASTTAPKVFPLASHSAATSGSTVALGCLVSSYFPEPVTVSWNSGALTSGVHTFPSVLQSSGLYSLSSMVTVPASSLKSQTYICNVAHPASSTKVDKKIVIKECNGGCPAECLQVGPSVFIFPPKPKDVLMISRTPTVTCVVVDVGHDFPDVQFNWYVDGVETHTATTEPKQEQFNSTYRVVSVLPIQHKDWLSGKEFKCKVNNKALPAPVERTISKPTGQPREPQVYVLAPHRDELSKNKVSVTCLVKDFYPTDIDIEWKSNGQPEPETKYSTTPAQLDSDGSYFLYSKLTVETNRWQQGTTFTCAVMHEALHPHYTEKSVSKSPGK", "Kd": 39.4},
      {"binder": "equine IgG1 T286P (antibody, part only; not given: variable domains, not shown: another chain or arm of the molecule) constant: ASTTAPKVFALAPGCGTTSDSTVALGCLVSGYFPEPVKVSWNSGSLTSGVHTFPSVLQSSGFYSLSSMVTVPASTWTSETYICNVVHAASNFKVDKRIEPIPDNHQKVCDMSKCPKCPAPELLGGPSVFIFPPNPKDTLMITRTPEVTCVVVDVSQENPDVKFNWYMDGVEVRPATTRPKEEQFNSTYRVVSVLRIQHQDWLSGKEFKCKVNNQALPQPIERTITKTKGRSQEPQVYVLAPHPDELSKSKVSVTCLVKDFYPPEINIEWQSNGQPELETKYSTTQAQQDSDGSYFLYSKLSVDRNRWQQGTTFTCGVMHEALHNHYTQKNVSKNPGK", "Kd": 14.6},
      {"binder": "equine IgG1 T286Q (antibody, part only; not given: variable domains, not shown: another chain or arm of the molecule) constant: ASTTAPKVFALAPGCGTTSDSTVALGCLVSGYFPEPVKVSWNSGSLTSGVHTFPSVLQSSGFYSLSSMVTVPASTWTSETYICNVVHAASNFKVDKRIEPIPDNHQKVCDMSKCPKCPAPELLGGPSVFIFPPNPKDTLMITRTPEVTCVVVDVSQENPDVKFNWYMDGVEVRQATTRPKEEQFNSTYRVVSVLRIQHQDWLSGKEFKCKVNNQALPQPIERTITKTKGRSQEPQVYVLAPHPDELSKSKVSVTCLVKDFYPPEINIEWQSNGQPELETKYSTTQAQQDSDGSYFLYSKLSVDRNRWQQGTTFTCGVMHEALHNHYTQKNVSKNPGK", "Kd": 17},
      {"binder": "equine IgG1 M252A (antibody, part only; not given: variable domains, not shown: another chain or arm of the molecule) constant: ASTTAPKVFALAPGCGTTSDSTVALGCLVSGYFPEPVKVSWNSGSLTSGVHTFPSVLQSSGFYSLSSMVTVPASTWTSETYICNVVHAASNFKVDKRIEPIPDNHQKVCDMSKCPKCPAPELLGGPSVFIFPPNPKDTLAITRTPEVTCVVVDVSQENPDVKFNWYMDGVEVRTATTRPKEEQFNSTYRVVSVLRIQHQDWLSGKEFKCKVNNQALPQPIERTITKTKGRSQEPQVYVLAPHPDELSKSKVSVTCLVKDFYPPEINIEWQSNGQPELETKYSTTQAQQDSDGSYFLYSKLSVDRNRWQQGTTFTCGVMHEALHNHYTQKNVSKNPGK", "Kd": 50.3}
    ]}
  ]
}
